Columns and labels:
[1] = target: Native rat insulin degrading enzyme (rIDE, insulysin), wild type, residues 42-1019 (rat) (UniProt P35559)
[2] = target: the molecule itself; assay: crystal structure; wild type rIDE and rIDE-E111F, no substrate peptide added; enzyme at 8 mg/ml in 50 mM Tris 7.4, 1 mM DTT, 100 mM NaCl; sitting drop, 100 mM sodium citrate pH 6.5, 100 mM ammonium acetate, 20% PEG 4000, 20 or 22°C; space group C2, one molecule per asymmetric unit

Chain of bradykinin (P01042 whole entry, looked up): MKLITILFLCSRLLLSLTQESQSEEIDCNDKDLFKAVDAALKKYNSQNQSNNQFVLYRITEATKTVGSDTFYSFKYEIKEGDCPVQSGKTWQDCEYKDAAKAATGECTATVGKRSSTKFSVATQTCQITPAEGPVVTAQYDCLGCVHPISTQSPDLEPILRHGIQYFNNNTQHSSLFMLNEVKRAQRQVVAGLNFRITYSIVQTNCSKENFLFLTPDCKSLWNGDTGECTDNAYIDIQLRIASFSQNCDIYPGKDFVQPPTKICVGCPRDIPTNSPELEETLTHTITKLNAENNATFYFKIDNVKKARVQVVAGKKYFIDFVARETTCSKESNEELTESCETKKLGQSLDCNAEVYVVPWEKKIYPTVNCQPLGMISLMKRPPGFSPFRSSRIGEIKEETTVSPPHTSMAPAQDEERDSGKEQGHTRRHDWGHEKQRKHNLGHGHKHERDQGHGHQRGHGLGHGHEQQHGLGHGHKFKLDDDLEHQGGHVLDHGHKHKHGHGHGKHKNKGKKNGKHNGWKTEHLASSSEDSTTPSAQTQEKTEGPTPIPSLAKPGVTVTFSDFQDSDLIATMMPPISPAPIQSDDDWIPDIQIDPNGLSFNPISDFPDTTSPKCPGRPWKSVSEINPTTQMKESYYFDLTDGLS

Molecule	enzyme activity: activation by bradykinin of hydrolysis of 10 µM Abz-…-EDDnp [1]	binding result [2]
bradykinin (from UniProt P01042 381-389) (peptide)	4 fold	–
Native rat insulin degrading enzyme (rIDE, insulysin), wild type, residues 42-1019 (enzyme, UniProt P35559 42-1019, looked up, Insulin-degrading enzyme (insulysin, EC 3.4.24.56), rat; begins at methionine 42 and extends through the native C-terminal residue leucine 1019 (the same paragraph also prints 'residues 42-1016'); In the crystal there is one molecule per asymmetric unit, and the dimer is formed by crystal symmetry; Expressed from pFastBac HTb; The model contains residues 42-963 and 980-1011; also called wild type …) MNNPAIQRIEDHIVKSPEDKREYRGLELANGIKVLLISDPTTDKSSAALDVHIGSLSDPPNIPGLSHFCEHMLFLGTKKYPKENEYSQFLSEHAGSSNAFTSGEHTNYYFDVSHEHLEGALDRFAQFFLCPLFDASCKDREVNAVDSEHEKNVMNDAWRLFQLEKATGNPKHPFSKFGTGNKYTLETRPNQEGIDVREELLKFHSTYYSSNLMAICVLGRESLDDLTNLVVKLFSEVENKNVPLPEFPEHPFQEEHLKQLYKIVPIKDIRNLYVTFPIPDLQQYYKSNPGHYLGHLIGHEGPGSLLSELKSKGWVNTLVGGQKEGARGFMFFIINVDLTEEGLLHVEDIILHMFQYIQKLRAEGPQEWVFQECKDLNAVAFRFKDKERPRGYTSKIAGKLHYYPLNGVLTAEYLLEEFRPDLIDMVLDKLRPENVRVAIVSKSFEGKTDRTEQWYGTQYKQEAIPEDVIQKWQNADLNGKFKLPTKNEFIPTNFEILALEKDATPYPALIKDTAMSKLWFKQDDKFFLPKACLNFEFFSPFAYVDPLHCNMAYLYLELLKDSLNEYAYAAELAGLSYDLQNTIYGMYLSVKGYNDKQPILLKKITEKMATFEIDKKRFEIIKEAYMRSLNNFRAEQPHQHAMYYLRLLMTEVAWTKDELKEALDDVTLPRLKAFIPQLLSRLHIEALLHGNITKQAALGVMQMVEDTLIEHAHTKPLLPSQLVRYREVQLPDRGWFVYQRRNEVHNNCGIEIYYQTDMQSTSENMFLELFCQIISEPCFNTLRTKEQLGYIVFSGPRRANGIQGLRFIIQSEKPPHYLESRVEAFLITMEKAIEDMTEEAFQKHIQALAIRRLDKPKKLSAECAKYWGEIISQQYNYDRDNIEVAYLKTLSKDDIIKFYKEMLAVDAPRRHKVSVHVLAREMDSCPVVGEFPSQNDINLSEAPPLPQPEVIHNMTEFKRGLPLFPLVKPHINFMAAKL	–	binds
rat insulin degrading enzyme E111F mutant (rIDE-E111F), residues 42-1019 (enzyme, UniProt P35559 42-1019, looked up, Insulin-degrading enzyme (insulysin), rat; begins at methionine 42 and extends through leucine 1019; catalytically compromised E111F mutant; No zinc ion in the crystal structure; The model contains residues 42-965 and 978-1011; also called E111F-rIDE; E111F IDE mutant; not shown: His6, N-terminal, cleaved) MNNPAIQRIEDHIVKSPEDKREYRGLELANGIKVLLISDPTTDKSSAALDVHIGSLSDPPNIPGLSHFCFHMLFLGTKKYPKENEYSQFLSEHAGSSNAFTSGEHTNYYFDVSHEHLEGALDRFAQFFLCPLFDASCKDREVNAVDSEHEKNVMNDAWRLFQLEKATGNPKHPFSKFGTGNKYTLETRPNQEGIDVREELLKFHSTYYSSNLMAICVLGRESLDDLTNLVVKLFSEVENKNVPLPEFPEHPFQEEHLKQLYKIVPIKDIRNLYVTFPIPDLQQYYKSNPGHYLGHLIGHEGPGSLLSELKSKGWVNTLVGGQKEGARGFMFFIINVDLTEEGLLHVEDIILHMFQYIQKLRAEGPQEWVFQECKDLNAVAFRFKDKERPRGYTSKIAGKLHYYPLNGVLTAEYLLEEFRPDLIDMVLDKLRPENVRVAIVSKSFEGKTDRTEQWYGTQYKQEAIPEDVIQKWQNADLNGKFKLPTKNEFIPTNFEILALEKDATPYPALIKDTAMSKLWFKQDDKFFLPKACLNFEFFSPFAYVDPLHCNMAYLYLELLKDSLNEYAYAAELAGLSYDLQNTIYGMYLSVKGYNDKQPILLKKITEKMATFEIDKKRFEIIKEAYMRSLNNFRAEQPHQHAMYYLRLLMTEVAWTKDELKEALDDVTLPRLKAFIPQLLSRLHIEALLHGNITKQAALGVMQMVEDTLIEHAHTKPLLPSQLVRYREVQLPDRGWFVYQRRNEVHNNCGIEIYYQTDMQSTSENMFLELFCQIISEPCFNTLRTKEQLGYIVFSGPRRANGIQGLRFIIQSEKPPHYLESRVEAFLITMEKAIEDMTEEAFQKHIQALAIRRLDKPKKLSAECAKYWGEIISQQYNYDRDNIEVAYLKTLSKDDIIKFYKEMLAVDAPRRHKVSVHVLAREMDSCPVVGEFPSQNDINLSEAPPLPQPEVIHNMTEFKRGLPLFPLVKPHINFMAAKL	–	binds
